Reference: article PMC5268470

B1: Na+-taurocholate cotransporting polypeptide (NTCP): NTCP-N5,11Q (protein)
parent chain: MEAHNASAPFNFTLPPNFGKRPTDLALSVILVFMLFFIMLSLGCTMEFSKIKAHLWKPKGLAIALVAQYGIMPLTAFVLGKVFRLKNIEALAILVCGCSPGGNLSNVFSLAMKGDMNLSIVMTTCSTFCALGMMPLLLYIYSRGIYDGDLKDKVPYKGIVISLVLVLIPCTIGIVLKSKRPQYMRYVIKGGMIIILLCSVAVTVLSAINVGKSIMFAMTPLLIATSSLMPFIGFLLGYVLSALFCLNGRCRRTVSMETGCQNVQLCSTILNVAFPPEVIGPLFFFPLLYMIFQLGEGLLLIAIFWCYEKFKTPKDKTKMIYTAATTEETIPGALGNGTYKGEDCSPCTA
B2: Na+-taurocholate cotransporting polypeptide (NTCP): NTCP-N5Q (protein)
parent chain: B1 parent chain
B3: Na+-taurocholate cotransporting polypeptide (NTCP): NTCP-N11Q (protein)
parent chain: B1 parent chain
B4: Na+-taurocholate cotransporting polypeptide (NTCP): untagged NTCP-N5,11Q (protein)
parent chain: B1 parent chain

Key:
[1] = [3H]-taurocholate uptake, Huh-7; conditions: glycan lost; control: NTCP-WT
[2] = cell surface biotinylation, immunoblot; conditions: glycan lost; control: NTCP-WT
[3] = anti-HA confocal immunofluorescence, HepG2; conditions: glycan lost; control: NTCP-WT
[4] = anti-HA IP-immunoblot, ImageJ quantification; conditions: glycan lost; control: NTCP-WT
[5] = Myrcludex B-FITC cell-surface fluorescence, plate reader; conditions: glycan lost; control: NTCP-WT
[6] = [3H]-taurocholate uptake, 2 min, HepG2; conditions: glycan lost; control: NTCP-WT
[7] = HBeAg ELISA, 3 days post infection, HepG2; conditions: glycan lost; control: NTCP-WT
[8] = intracellular cccDNA qPCR, 3 days post infection, HepG2; conditions: glycan lost; control: NTCP-WT
[9] = [3H]-taurocholate uptake, HepG2, untagged NTCP; conditions: glycan lost; control: untagged NTCP-WT

Row | Protein | other: transport activity [1] | localisation_or_trafficking [2] | localisation_or_trafficking [3] | expression_or_secretion [4] | localisation_or_trafficking [5] | other: transport activity [6] | other: HBV receptor activity (infection) [7] | other: HBV receptor activity (infection) [8] | other: transport activity [9]
1 | B1 | decreases | abolishes | changes | decreases | decreases | – | – | – | –
2 | B2 | – | no change | no change | – | decreases | no change | no change | no change | –
3 | B3 | – | no change | no change | – | decreases | no change | no change | no change | –
4 | B4 | – | – | – | – | – | – | – | – | decreases
